{
  "source": "paper PMC4225554",
  "key": {"[1]": {"target": "RD1-MART1 single-chain TCR, yeast-displayed (human)", "test": "flow cytometry on cells"}, "[2]": {"target": "RD1-MART1^HIGH single-chain TCR, yeast-displayed (human)", "test": "flow cytometry on cells"}},
  "note": "pEC50: −log10 of the molar value.",
  "data": [
    {"substance": "MART1 ([…])/HLA-A2, refolded biotinylated monomer (from UniProt P61769 21-119) (peptide-MHC)", "values": [
      {"measurement": "pEC50", "setting": "[1]", "result": "< 5.30"},
      {"measurement": "pEC50", "setting": "[2]", "result": 7.28}
    ]},
    {"substance": "MART1 ([…])/HLA-A2-Ig dimer (from UniProt P61769 21-119) (peptide-MHC)", "values": [
      {"measurement": "pEC50", "setting": "[1]", "result": 6.89}
    ]}
  ]
}
